Laboratory results published in US20200087392A1 (Novartis, published 2020).

Target: T1, human β-klotho (human, UniProt Q86Z14 52-997, limits assumed)
T1 construct: Antigen of the SET assay; also called beta-klotho
T1 sequence: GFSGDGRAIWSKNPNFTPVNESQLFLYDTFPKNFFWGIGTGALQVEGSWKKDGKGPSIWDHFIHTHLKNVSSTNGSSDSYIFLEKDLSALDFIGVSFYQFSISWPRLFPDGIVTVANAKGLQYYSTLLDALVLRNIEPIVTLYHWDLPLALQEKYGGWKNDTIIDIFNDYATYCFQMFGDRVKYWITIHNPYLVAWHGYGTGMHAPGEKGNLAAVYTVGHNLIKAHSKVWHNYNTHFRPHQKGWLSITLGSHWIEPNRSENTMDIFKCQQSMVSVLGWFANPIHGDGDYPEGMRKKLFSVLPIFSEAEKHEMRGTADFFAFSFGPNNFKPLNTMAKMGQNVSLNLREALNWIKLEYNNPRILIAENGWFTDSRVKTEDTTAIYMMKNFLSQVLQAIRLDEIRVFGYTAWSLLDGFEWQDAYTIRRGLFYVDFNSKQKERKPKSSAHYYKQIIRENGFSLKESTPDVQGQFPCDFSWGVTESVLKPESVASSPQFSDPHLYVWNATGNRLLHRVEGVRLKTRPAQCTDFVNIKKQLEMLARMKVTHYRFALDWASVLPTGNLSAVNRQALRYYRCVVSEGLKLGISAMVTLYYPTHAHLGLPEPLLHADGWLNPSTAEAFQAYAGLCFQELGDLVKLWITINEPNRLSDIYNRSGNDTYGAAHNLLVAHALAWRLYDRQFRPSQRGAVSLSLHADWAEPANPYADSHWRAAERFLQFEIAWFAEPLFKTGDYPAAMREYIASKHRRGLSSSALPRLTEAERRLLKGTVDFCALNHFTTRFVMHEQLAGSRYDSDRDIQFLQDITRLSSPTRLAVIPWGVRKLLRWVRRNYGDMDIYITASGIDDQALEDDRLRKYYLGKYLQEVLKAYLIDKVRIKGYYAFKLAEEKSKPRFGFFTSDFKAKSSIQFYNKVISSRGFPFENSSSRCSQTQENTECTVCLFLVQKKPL
Test: solution equilibrium titration (SET)

B1: NOV001 (antibody, human IgG1, kappa, L234A L235A, V domains shown)
VH: QVQLVQSGAEVKKPGSSVKVSCKASGYTFTDYYINWVRQAPGQGLEWMGRIHPGSGNTYYNEKFQGRVTLTADKSTSTAYMELSSLRSEDTAVYYCAILLLRSYGMDDWGQGTTVTVSS
VL: DVVMTQTPLSLSVTPGQPASISCKSSQSIVHSSGNTYLEWYLQKPGQSPQLLIYKVSNRFSGVPDRFSGSGSGTDFTLKISRVEAEDVGVYYCFQGSHIPYTFGQGTKLEIKR
notes: also called IgG1 LALA version of NOV003
Kd: ~0.042 nM
